# Experimental data from the supplement of paper PMC10567573.
# B1: ZNF449 (parent)
# chain: CTHCSKSFRQRAGLIMHQVTHFRG
# B2: TRIM63 (parent)
# chain: QRITQEQEKKLSFIEALIQQYQEQ
# Variants of: B1
# Test: protein stability index of a GFP-peptide fusion (GPS, HEK-293T) (PSI 1-6); higher = more stable
# Settings: c terminus: a fixed tail appended
# 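Also: lentivirally expressed fusions sorted by FACS into six bins by GFP to DsRed ratio, PSI derived from sequencing read proportions per bin multiplied by bin number.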
row,Variant,protein stability index
1,C4E,1.77
2,C4G,1.8
3,C4A,2.6
4,C4D,1.66
5,C1R,1.93
6,C1T,1.5
7,C1L,2.48
8,C1F,1.22
9,C1M,1.53
10,C1I,1.74
11,C1W,3.78
12,C1Q,3.23
13,C1V,1.64
14,C1K,2.66
15,C1S,1.91
16,C1D,2.01
17,C1A,2.17
18,C1N,1.72
19,C1H,1.96
20,C1Y,1.2
21,C1E,1.77
22,T2M,1.71
23,T2C,2.09
24,T2E,2.4
25,T2Q,2.84
26,T2D,1.86

row,Variant,protein stability index
1,T2V,1.98
2,T2N,2.29
3,T2G,1.5
4,T2I,2.7
5,T2K,2.25
6,T2P,1.82
7,T2L,1.97
8,T2F,1.45
9,T2S,1.98
10,T2H,1.92
11,T2R,2.18
12,H3T,2.09
13,H3E,2.11
14,H3M,2.42
15,H3L,2.08
16,H3F,2.09
17,H3K,2.22
18,H3R,1.77
19,H3S,1.66
20,H3W,1.38
21,H3Y,2.28
22,H3D,3.44
23,H3P,1.04
24,H3N,2.18
25,H3Q,1.45

# Variants of: B2
# Test: as above
# Settings: c terminus: a fixed tail appended
row,Variant,protein stability index
1,A16K,2.25
2,A16V,1.76
3,A16N,2.69
4,A16E,2.95
5,A16Y,2.31
6,A16T,2.15
7,A16Q,1.83
8,A16S,2.45
9,A16C,2.46
10,A16P,4.08
11,A16L,1.7
12,A16H,2.45
13,A16D,3.16
14,A16M,3.77
15,A16F,2.57
16,A16W,2.37
17,A16R,2.63
18,A16G,3.33
19,A16I,3.03
20,F13T,4.78
21,F13H,4.14
22,F13M,3.25
23,F13I,2.62
24,F13S,4.52

row,Variant,protein stability index
1,F13N,4.66
2,F13G,4.6
3,F13C,3.56
4,F13Y,2.62
5,F13A,4.47
6,F13W,1.68
7,F13Q,4.33
8,F13P,4.68
9,F13K,3.59
10,F13E,4.78
11,F13L,2.72
12,F13V,3.93
13,F13R,3.91
14,F13D,4.83
15,K9F,2.78
16,K9I,1.79
17,K9E,3.27
18,K9L,1.88
19,K9Q,2.82
20,K9H,2.6
21,K9R,2.74
22,K9D,2.77
23,K9Y,2.2
24,K9P,3.01

row,Variant,protein stability index
1,K9M,2.44
2,K9G,2.78
3,K9S,2.7
4,K9W,3.8
5,K9T,2.41
6,K9V,2.22
7,Q24M,2.57
8,Q24V,2.24
9,Q24D,1.82
10,Q24N,2.25
11,Q24Y,1.66
12,Q24K,2.06
13,Q24L,2.16
14,Q24P,2.68
15,Q24S,1.98
16,Q24F,1.97
17,Q24T,2.36
18,Q24W,1.46
19,Q24E,2.14
20,Q24H,2.49
21,Q24A,2.41
22,Q24C,2.51
23,Q24R,2.06
24,Q24I,2.52

row,Variant,protein stability index
1,Q19H,2.04
2,Q19F,1.91
3,Q19W,2.62
4,Q19D,2.46
5,Q19T,2.75
6,Q19C,2.6
7,Q19Y,1.64
8,Q19A,1.8
9,Q19E,2.56
10,Q19V,1.81
11,Q19G,2.51
12,Q19R,1.38
13,Q19P,3.19
14,Q19K,2.48
15,Q19N,2.25
16,Q19I,2.73
17,I18F,2.74
18,I18P,4.54
19,I18D,2.92
20,I18R,3.4
21,I18K,2.42
22,I18Y,3.29
23,I18W,2.7
24,I18E,2.2

row,Variant,protein stability index
1,I18H,3.6
2,I18A,2.65
3,I18N,3.57
4,I18L,2.3
5,I18Q,1.81
6,I18M,2.22
7,I18S,2.94
8,I18T,3.31
9,I18G,3.67
10,I18C,2.67
11,I18V,3.12
12,Q22A,2.36
13,Q22I,1.35
14,Q22H,2.52
15,Q22T,2.22
16,Q22K,2.03
17,Q22M,1.79
18,Q22F,2.02
19,Q22P,3.12
20,Q22S,2.41
21,Q22E,1.5
22,Q22Y,2.62
23,Q22C,2.48
24,Q22L,2.1

row,Variant,protein stability index
1,Q22N,2.79
2,Q22G,2.89
3,Q22R,2.42
4,Q22D,1.77
5,L17E,4.81
6,L17G,4.54
7,L17S,4.13
8,L17I,2.28
9,L17F,2.62
10,L17A,3.42
11,L17Q,4.03
12,L17P,4.63
13,L17M,2.93
14,L17Y,1.92
15,L17R,4.34
16,L17T,3.31
17,L17D,4.58
18,L17K,3.75
19,L17N,4.73
20,L17V,2.2
21,L17H,3.06
22,L17C,2.23
23,Q20L,2.43
24,Q20T,2.67

row,Variant,protein stability index
1,Q20G,3.11
2,Q20M,2.36
3,Q20N,2.93
4,Q20F,2.6
5,Q20S,2.4
6,Q20R,2.28
7,Q20A,2.11
8,Q20D,2.35
9,Q20I,1.67
10,Q20P,3.43
11,Q20V,1.42
12,Q20C,2.23
13,Q20K,5.33
14,Q20E,1.09
15,Q20W,2.01
16,Y21Q,2.75
17,Y21N,4.41
18,Y21H,2.55
19,Y21W,1.8
20,Y21F,1.76
21,Y21M,1.98
22,Y21P,4.33
23,Y21K,3.8
24,Y21V,2.32

row,Variant,protein stability index
1,Y21L,1.6
2,Y21E,2.11
3,Y21A,3.38
4,Y21R,3.91
5,Y21C,1.75
6,Y21G,3.61
7,Y21T,3.23
8,Y21S,3.19
9,Y21I,1.84
10,L11F,1.87
11,L11S,2.63
12,L11Y,2.79
13,L11R,2.24
14,L11H,2.8
15,L11M,1.82
16,L11D,3.94
17,L11Q,3.08
18,L11W,2.26
19,L11T,2.54
20,L11A,3.13
21,L11N,2.79
22,L11C,2.35
23,L11P,2.78
24,L11I,2.64

row,Variant,protein stability index
1,L11V,1.95
2,L11K,1.56
3,L11G,2.53
4,L11E,3.98
5,E23Q,2.18
6,E23I,1.54
7,E23C,2.37
8,E23T,1.94
9,E23A,1.96
10,E23M,1.51
11,E23H,2.14
12,E23Y,1.99
13,E23L,2.65
14,E23P,1.95
15,E23W,2.1
16,E23K,2.4
17,E23N,1.9
18,E23V,2.34
19,E23G,2.57
20,E23F,2.01
21,E23R,1.97
22,E23D,2.62
23,E23S,2
24,E15Y,2.34

row,Variant,protein stability index
1,E15W,2.5
2,E15P,3.48
3,E15F,1.92
4,E15I,1.6
5,E15L,2.56
6,E15D,2.19
7,E15T,2.32
8,E15C,1.44
9,E15H,2.28
10,E15R,2.16
11,E15A,2.82
12,E15Q,2.23
13,E15S,2.12
14,E15N,2.04
15,E15G,2.44
16,E15K,2.11
17,K10D,3.67
18,K10T,2.2
19,K10W,2.05
20,K10P,2.77
21,K10G,3.58
22,K10Y,1.73
23,K10A,2.1
24,K10V,2.02

row,Variant,protein stability index
1,K10N,3
2,K10S,2.73
3,K10Q,1.95
4,K10L,1.72
5,K10H,2.7
6,K10F,2.1
7,K10I,2.57
8,K10E,3
9,K10R,2.47
10,K10C,2.04
11,I14R,3.15
12,I14S,3.48
13,I14C,2.02
14,I14E,2.77
15,I14Q,3.22
16,I14D,4.69
17,I14A,2.41
18,I14M,2.79
19,I14G,4.31
20,I14H,3.2
21,I14L,2.23
22,I14N,4.7
23,I14Y,2.87
24,I14P,4.55

row,Variant,protein stability index
1,I14T,2.35
2,I14F,3
3,S12I,2.12
4,S12C,2.25
5,S12V,1.81
6,S12K,1.91
7,S12W,1.57
8,S12D,2.86
9,S12Q,2.62
10,S12A,3.19
11,S12M,1.86
12,S12Y,1.85
13,S12F,2.56
14,S12G,2.71
15,S12H,2.9
16,S12N,2.74
17,S12T,3.23
18,S12P,3.91
19,S12L,2.39
